Our source for the mean YFP fluorescence lifetime in cells, day 4, mean YFP fluorescence lifetime, day 4 (oligomeric species) and decrease of mean YFP fluorescence lifetime during ageing values is article PMC5402868.

Assay [1] has as its target α-synuclein-YFP fusion protein (recombinant) (UniProt P37840). The experiment in a line: FRET or BRET.
For assay [2], the target named is α-synuclein-YFP transgene product in C. elegans (UniProt P37840). The experiment in a line: FRET or BRET.

As to “α-synuclein-YFP fusion protein (recombinant) (from UniProt P37840 1-140) (natural protein)”, in assay [1], the mean YFP fluorescence lifetime in cells, day 4 was 1480 ps and the mean YFP fluorescence lifetime, day 4 (oligomeric species) amounted to 2960 ps.

Take “α-synuclein-YFP transgene product in C. elegans (from UniProt P37840 1-140) (natural protein)”: the decrease of mean YFP fluorescence lifetime during ageing in assay [2] came out at 130 ps.
